Reference: the supplement of paper PMC9112550, “Optimization of the antimicrobial peptide Bac7 by deep mutational scanning” (BMC Biology, 2022)

Test system: Escherichia coli TOP10
Assay: shrunken log2 fold change of peptide-encoding DNA abundance (4.5 h post-induction vs induction); higher = less antimicrobial activity (less host growth inhibition)
Conditions: time post-induction: 4.5 h; library: site-saturation at positions 5, 18, 19, 20
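Further: peptides expressed intracellularly from a pBAD plasmid library in pooled LB shake-flask culture, induced with 0.3% L-arabinose, DNA abundance read by NGS, three biological replicates, DESeq2 with apeglm shrinkage.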

## RRIRHRPPRLPRPRPRPQHPPRP
  shrunken log2 fold change: -0.396

## RRIRSRPPRLPRPRPRPGPDPRP
  shrunken log2 fold change: 0.332

## RRIRHRPPRLPRPRPRPYWFPRP
  shrunken log2 fold change: -0.963

## RRIRMRPPRLPRPRPRPHWLPRP
  shrunken log2 fold change: -0.183

## RRIRIRPPRLPRPRPRPTHTPRP
  shrunken log2 fold change: -0.448

## RRIRSRPPRLPRPRPRPGFIPRP
  shrunken log2 fold change: -0.205

## RRIRRRPPRLPRPRPRPWPAPRP
  shrunken log2 fold change: 0.448

## RRIRSRPPRLPRPRPRPSCFPRP
  shrunken log2 fold change: -0.197

## RRIRKRPPRLPRPRPRPYEMPRP
  shrunken log2 fold change: 0.138

## RRIRPRPPRLPRPRPRPDMFPRP
  shrunken log2 fold change: 2.58

## RRIRVRPPRLPRPRPRPLLQPRP
  shrunken log2 fold change: 0.0881

## RRIRRRPPRLPRPRPRPEYWPRP
  shrunken log2 fold change: 0.0322

## RRIRCRPPRLPRPRPRPKEDPRP
  shrunken log2 fold change: 0.166

## RRIRSRPPRLPRPRPRPRLTPRP
  shrunken log2 fold change: 0.0483

## RRIRRRPPRLPRPRPRPDRDPRP
  shrunken log2 fold change: 0.15

## RRIRGRPPRLPRPRPRPRWQPRP
  shrunken log2 fold change: 0.994

## RRIRHRPPRLPRPRPRPFYKPRP
  shrunken log2 fold change: -0.774

## RRIRTRPPRLPRPRPRPVYPPRP
  shrunken log2 fold change: -0.00118

## RRIRNRPPRLPRPRPRPSQGPRP
  shrunken log2 fold change: -0.154

## RRIRKRPPRLPRPRPRPKTDPRP
  shrunken log2 fold change: 0.343

## RRIRSRPPRLPRPRPRPGKHPRP
  shrunken log2 fold change: 0.0205

## RRIRLRPPRLPRPRPRPAGIPRP
  shrunken log2 fold change: -0.043

## RRIRLRPPRLPRPRPRPMHHPRP
  shrunken log2 fold change: 0.0581

## RRIRPRPPRLPRPRPRPQYFPRP
  shrunken log2 fold change: -0.0988

## RRIRHRPPRLPRPRPRPCGMPRP
  shrunken log2 fold change: -0.0838

## RRIRVRPPRLPRPRPRPYSQPRP
  shrunken log2 fold change: 0.0117

## RRIRLRPPRLPRPRPRPRIFPRP
  shrunken log2 fold change: -0.263

## RRIRFRPPRLPRPRPRPQMFPRP
  shrunken log2 fold change: -0.103

## RRIRMRPPRLPRPRPRPNWHPRP
  shrunken log2 fold change: -0.0297

## RRIRTRPPRLPRPRPRPEITPRP
  shrunken log2 fold change: -0.0572

## RRIRARPPRLPRPRPRPTAVPRP
  shrunken log2 fold change: 0.873

## RRIRARPPRLPRPRPRPEAYPRP
  shrunken log2 fold change: 0.114

## RRIRRRPPRLPRPRPRPQFWPRP
  shrunken log2 fold change: 0.172

## RRIRLRPPRLPRPRPRPNARPRP
  shrunken log2 fold change: 0.1

## RRIRPRPPRLPRPRPRPSRHPRP
  shrunken log2 fold change: -0.0917

## RRIRARPPRLPRPRPRPTPGPRP
  shrunken log2 fold change: 0.826

## RRIRKRPPRLPRPRPRPMNSPRP
  shrunken log2 fold change: -0.0163

## RRIRNRPPRLPRPRPRPGVYPRP
  shrunken log2 fold change: -0.241

## RRIRYRPPRLPRPRPRPMVQPRP
  shrunken log2 fold change: 0.0303

## RRIRFRPPRLPRPRPRPDCWPRP
  shrunken log2 fold change: -0.0344

## RRIRHRPPRLPRPRPRPNQHPRP
  shrunken log2 fold change: -0.922

## RRIRPRPPRLPRPRPRPSQDPRP
  shrunken log2 fold change: -0.334

## RRIRKRPPRLPRPRPRPTRDPRP
  shrunken log2 fold change: 0.753

## RRIRIRPPRLPRPRPRPMLTPRP
  shrunken log2 fold change: -0.00363

## RRIRARPPRLPRPRPRPSHLPRP
  shrunken log2 fold change: -0.41

## RRIRKRPPRLPRPRPRPCAWPRP
  shrunken log2 fold change: 0.953

## RRIRYRPPRLPRPRPRPERMPRP
  shrunken log2 fold change: -0.459

## RRIRERPPRLPRPRPRPNPYPRP
  shrunken log2 fold change: -0.304

## RRIRTRPPRLPRPRPRPIVEPRP
  shrunken log2 fold change: 0.0431

## RRIRIRPPRLPRPRPRPPYWPRP
  shrunken log2 fold change: -0.00803

## RRIRGRPPRLPRPRPRPLANPRP
  shrunken log2 fold change: 0.835

## RRIRTRPPRLPRPRPRPQRKPRP
  shrunken log2 fold change: 0.138

## RRIRWRPPRLPRPRPRPDGMPRP
  shrunken log2 fold change: 0.0134

## RRIRWRPPRLPRPRPRPTRCPRP
  shrunken log2 fold change: 0.0338

## RRIRMRPPRLPRPRPRPSHVPRP
  shrunken log2 fold change: -0.0609

## RRIRRRPPRLPRPRPRPNARPRP
  shrunken log2 fold change: 0.35

## RRIRGRPPRLPRPRPRPAIQPRP
  shrunken log2 fold change: 0.438

## RRIRERPPRLPRPRPRPCRIPRP
  shrunken log2 fold change: -0.0965

## RRIRHRPPRLPRPRPRPGSSPRP
  shrunken log2 fold change: 0.0127

## RRIRIRPPRLPRPRPRPPSVPRP
  shrunken log2 fold change: -0.0681

## RRIRGRPPRLPRPRPRPHNFPRP
  shrunken log2 fold change: 0.0511

## RRIRPRPPRLPRPRPRPDKHPRP
  shrunken log2 fold change: -0.376

## RRIRIRPPRLPRPRPRPCDTPRP
  shrunken log2 fold change: -0.387

## RRIRLRPPRLPRPRPRPMTSPRP
  shrunken log2 fold change: 0.142

## RRIRCRPPRLPRPRPRPNHKPRP
  shrunken log2 fold change: -0.862

## RRIRRRPPRLPRPRPRPYRVPRP
  shrunken log2 fold change: -0.0172

## RRIRWRPPRLPRPRPRPMSVPRP
  shrunken log2 fold change: 0.0691

## RRIRERPPRLPRPRPRPVNAPRP
  shrunken log2 fold change: -0.353

## RRIRRRPPRLPRPRPRPKWIPRP
  shrunken log2 fold change: -0.096

## RRIRHRPPRLPRPRPRPHECPRP
  shrunken log2 fold change: -0.0277

## RRIRNRPPRLPRPRPRPLPAPRP
  shrunken log2 fold change: 1.07

## RRIRGRPPRLPRPRPRPTTIPRP
  shrunken log2 fold change: 0.623

## RRIRPRPPRLPRPRPRPNHLPRP
  shrunken log2 fold change: -0.601

## RRIRPRPPRLPRPRPRPHCGPRP
  shrunken log2 fold change: -0.168

## RRIRARPPRLPRPRPRPPRVPRP
  shrunken log2 fold change: 0.875

## RRIRKRPPRLPRPRPRPMCRPRP
  shrunken log2 fold change: 0.625

## RRIRYRPPRLPRPRPRPEIMPRP
  shrunken log2 fold change: -0.272

## RRIRTRPPRLPRPRPRPKVHPRP
  shrunken log2 fold change: -0.429

## RRIRPRPPRLPRPRPRPNCSPRP
  shrunken log2 fold change: -0.132

## RRIRQRPPRLPRPRPRPLAGPRP
  shrunken log2 fold change: 0.166

## RRIRYRPPRLPRPRPRPVNCPRP
  shrunken log2 fold change: 0.0039

## RRIRGRPPRLPRPRPRPWCMPRP
  shrunken log2 fold change: 0.13

## RRIRHRPPRLPRPRPRPIIGPRP
  shrunken log2 fold change: -0.00804

## RRIRERPPRLPRPRPRPTLGPRP
  shrunken log2 fold change: 0.0905

## RRIRGRPPRLPRPRPRPCNAPRP
  shrunken log2 fold change: 1.45

## RRIRVRPPRLPRPRPRPWLFPRP
  shrunken log2 fold change: 0.141

## RRIRLRPPRLPRPRPRPEWYPRP
  shrunken log2 fold change: 0.0934

## RRIRLRPPRLPRPRPRPWFWPRP
  shrunken log2 fold change: -0.0455

## RRIRMRPPRLPRPRPRPMGKPRP
  shrunken log2 fold change: 0.0275

## RRIRDRPPRLPRPRPRPMKFPRP
  shrunken log2 fold change: -0.00192

## RRIRKRPPRLPRPRPRPKQHPRP
  shrunken log2 fold change: 0.657

## RRIRVRPPRLPRPRPRPEGRPRP
  shrunken log2 fold change: 0.0493

## RRIRARPPRLPRPRPRPCEQPRP
  shrunken log2 fold change: 0.233

## RRIRTRPPRLPRPRPRPTQYPRP
  shrunken log2 fold change: -0.207

## RRIRVRPPRLPRPRPRPKEEPRP
  shrunken log2 fold change: 0.00911

## RRIRDRPPRLPRPRPRPFVWPRP
  shrunken log2 fold change: 0.525

## RRIRYRPPRLPRPRPRPCPCPRP
  shrunken log2 fold change: 0.0185

## RRIRQRPPRLPRPRPRPSSEPRP
  shrunken log2 fold change: 0.0507

## RRIRDRPPRLPRPRPRPTCRPRP
  shrunken log2 fold change: 0.175

## RRIRTRPPRLPRPRPRPWNPPRP
  shrunken log2 fold change: 0.0296

## RRIRMRPPRLPRPRPRPHLKPRP
  shrunken log2 fold change: 0.253

## RRIRFRPPRLPRPRPRPLKQPRP
  shrunken log2 fold change: 0.053

## RRIRKRPPRLPRPRPRPAAGPRP
  shrunken log2 fold change: 0.896

## RRIRCRPPRLPRPRPRPQHNPRP
  shrunken log2 fold change: -0.771

## RRIRYRPPRLPRPRPRPWVMPRP
  shrunken log2 fold change: -0.195

## RRIRERPPRLPRPRPRPPLLPRP
  shrunken log2 fold change: -0.0533

## RRIRNRPPRLPRPRPRPYLEPRP
  shrunken log2 fold change: -0.00618

## RRIRVRPPRLPRPRPRPTDTPRP
  shrunken log2 fold change: 0.817

## RRIRWRPPRLPRPRPRPRAHPRP
  shrunken log2 fold change: 0.167

## RRIRPRPPRLPRPRPRPRWIPRP
  shrunken log2 fold change: 0.157

## RRIRYRPPRLPRPRPRPDCAPRP
  shrunken log2 fold change: -0.218

## RRIRHRPPRLPRPRPRPETVPRP
  shrunken log2 fold change: 0.12

## RRIRNRPPRLPRPRPRPDQDPRP
  shrunken log2 fold change: -0.00104

## RRIRGRPPRLPRPRPRPLDTPRP
  shrunken log2 fold change: 0.963

## RRIRPRPPRLPRPRPRPGRIPRP
  shrunken log2 fold change: 0.0185

## RRIRRRPPRLPRPRPRPCCSPRP
  shrunken log2 fold change: 0.107

## RRIRNRPPRLPRPRPRPYEDPRP
  shrunken log2 fold change: -0.173

## RRIRGRPPRLPRPRPRPQLPPRP
  shrunken log2 fold change: 0.183

## RRIRWRPPRLPRPRPRPMMAPRP
  shrunken log2 fold change: 0.452

## RRIRWRPPRLPRPRPRPEMRPRP
  shrunken log2 fold change: 2.09

## RRIRRRPPRLPRPRPRPQTYPRP
  shrunken log2 fold change: -0.0324

## RRIRIRPPRLPRPRPRPAEVPRP
  shrunken log2 fold change: -0.041

## RRIRCRPPRLPRPRPRPNAIPRP
  shrunken log2 fold change: 0.0905

## RRIRSRPPRLPRPRPRPANTPRP
  shrunken log2 fold change: -0.268

## RRIRTRPPRLPRPRPRPWTRPRP
  shrunken log2 fold change: 0.064

## RRIRLRPPRLPRPRPRPSEIPRP
  shrunken log2 fold change: -0.397

## RRIRNRPPRLPRPRPRPQDFPRP
  shrunken log2 fold change: -0.0385

## RRIRHRPPRLPRPRPRPMKYPRP
  shrunken log2 fold change: -0.0485

## RRIRIRPPRLPRPRPRPLASPRP
  shrunken log2 fold change: 0.0396

## RRIRLRPPRLPRPRPRPMNGPRP
  shrunken log2 fold change: -0.618

## RRIRHRPPRLPRPRPRPIPAPRP
  shrunken log2 fold change: 0.32

## RRIRLRPPRLPRPRPRPYIPPRP
  shrunken log2 fold change: -0.669

## RRIRFRPPRLPRPRPRPRNVPRP
  shrunken log2 fold change: -0.372

## RRIRWRPPRLPRPRPRPIITPRP
  shrunken log2 fold change: -0.827

## RRIRMRPPRLPRPRPRPSEKPRP
  shrunken log2 fold change: 0.938

## RRIRARPPRLPRPRPRPGWPPRP
  shrunken log2 fold change: 0.789

## RRIRGRPPRLPRPRPRPPIRPRP
  shrunken log2 fold change: 0.849

## RRIRRRPPRLPRPRPRPKTCPRP
  shrunken log2 fold change: 0.265

## RRIRFRPPRLPRPRPRPMESPRP
  shrunken log2 fold change: 0.0556

## RRIRGRPPRLPRPRPRPVGLPRP
  shrunken log2 fold change: 0.954

## RRIRPRPPRLPRPRPRPNLQPRP
  shrunken log2 fold change: 0.0751

## RRIRIRPPRLPRPRPRPHSTPRP
  shrunken log2 fold change: -0.428

## RRIRWRPPRLPRPRPRPGCFPRP
  shrunken log2 fold change: 0.375

## RRIRPRPPRLPRPRPRPENGPRP
  shrunken log2 fold change: -0.0225

## RRIRKRPPRLPRPRPRPLYKPRP
  shrunken log2 fold change: -0.112

## RRIRYRPPRLPRPRPRPYYSPRP
  shrunken log2 fold change: 0.0106

## RRIRQRPPRLPRPRPRPPLWPRP
  shrunken log2 fold change: 0.494

## RRIRERPPRLPRPRPRPVEYPRP
  shrunken log2 fold change: -0.0437

## RRIRARPPRLPRPRPRPQCSPRP
  shrunken log2 fold change: 0.111

## RRIRDRPPRLPRPRPRPTYEPRP
  shrunken log2 fold change: 0.127
